Source: patent US20070178572A1, “Protein crystal structure” (priority 2003, published 2007)
Read-outs that look alike come from different tables or passages of the source.

Key:
[1] = system: H3 20mer peptide; assay: Analytical analysis of histone methylation (HPLC separation and MALDI of reaction products); type: biochemical, human; conditions: unmodified peptide and AdoMet, reaction driven essentially to completion
Method: The histone methyltransferase assay for analytical purposes was carried out under slightly different conditions than those described in Example 1.2. For analytical purposes the reaction was performed at 37° C. in 50 mM Tris-HCl, pH 8.0, 100 mM NaCl, 1 mM DTT, with 300 μM AdoMet (Fluka, Switzerland), 100 μM H3 20mer peptide ([…]), and with 1.5 μM enzyme. At desired time intervals an aliquot of the reaction was removed and quenched in 8 M urea and acidified with glacial acetic acid. The reaction products were separated by reverse phase HPLC (Jasco (UK) Ltd) on a Zorbax 300SB-C18 column (Rockland Technologies, Inc. USA) using a gradient from 0 to 40% acetonitrile in the presence of 0.05% trifluoroacetic acid at 55° C. Fractions from the peptide peak were analysed using a Reflex III MALDI time-of-flight mass spectrometer (Bruker Daltonik, GmbH, Germany) to obtain positive ion mass spectra.
The present inventors have further analysed the methylation reaction. Reaction mixtures were set up with unmodified peptide and AdoMet and conditions found where the reaction was driven essentially to completion. […] The reason for SET 7/9 acting as a mono-methyltransferase is readily apparent from the crystal structure now presented. The peptide used for crystallization was synthesised using mono-methylated lysine at position 4. […]

[2] = system: histone H3 peptide; conditions: previously reported (Wilson et al, 2002); cited from earlier work
[3] = system: histone H3 peptide; assay: HMTase activity measurements (histone methyltransferase assay, [methyl-3H] AdoMet, scintillation counting); type: biochemical, human
Method: The methyltransferase activity of SET7/9 and the various mutant constructs described in the text were determined in a reaction volume of 20 μl containing 3 μM AdoMet supplemented with [methyl-^3H] AdoMet (4 μCi) (Amersham Biosciences, UK) and […] purified methylase in reaction buffer (50 mM Tris pH 8.5, 100 mm NaCl, 1 mM EDTA, 1 mM DTT) with 50 μM histone peptide (see below). Following incubation at 37° C. for 60 min the reaction was vacuum blotted onto membrane (Hybond-C, Amersham Biosciences, UK) washed and activity measured by scintillation counting.

B1: SET 7/9: human enzyme that specifically methylates lysine-4 of histone H3 (protein, UniProt Q8WTS6 1-366, looked up)
Histone-lysine …: MDSDDEMVEEAVEGHLDDDGLPHGFCTVTYSSTDRFEGNFVHGEKNGRGKFFFFDGSTLEGYYVDDALQGQGVYTYEDGGVLQGTYVDGELNGPAQEYDTDGRLIFKGQYKDNIRHGVCWIYYPDGGSLVGEVNEDGEMTGEKIAYVYPDERTALYGKFIDGEMIEGKLATLMSTEEGRPHFELMPGNSVYHFDKSTSSCISTNALLPDPYESERVYVAESLISSAGEGLFSKVAVGPNTVMSFYNGVRITHQEVDSRDWALNGNTLSLDEETVIDVPEPYNHVSKYCASLGHKANHSFTPNCIYDMFVHPRFGPIKCIRTLRAVEADEELTVAYGYDHSPPGKSGPEAPEWYQVELKAFQATQQK
- methylation state of reaction product [1]: only mono-methylated peptide

B2: Y245>A: SET 7/9 histone methyltransferase with point mutation of Tyr-245 to alanine (protein, UniProt Q8WTS6 1-366, looked up, variant Y245A)
Histone-lysine …: MDSDDEMVEEAVEGHLDDDGLPHGFCTVTYSSTDRFEGNFVHGEKNGRGKFFFFDGSTLEGYYVDDALQGQGVYTYEDGGVLQGTYVDGELNGPAQEYDTDGRLIFKGQYKDNIRHGVCWIYYPDGGSLVGEVNEDGEMTGEKIAYVYPDERTALYGKFIDGEMIEGKLATLMSTEEGRPHFELMPGNSVYHFDKSTSSCISTNALLPDPYESERVYVAESLISSAGEGLFSKVAVGPNTVMSFANGVRITHQEVDSRDWALNGNTLSLDEETVIDVPEPYNHVSKYCASLGHKANHSFTPNCIYDMFVHPRFGPIKCIRTLRAVEADEELTVAYGYDHSPPGKSGPEAPEWYQVELKAFQATQQK
- HMTase activity [2]: dramatic reduction in HMTase activity
- HMTase activity ([3]; mono-methylated Lys-4 substrate): substantial activity
- HMTase activity ([3]; unmodified lysine substrate): greatly reduced activity
